Measurements as given in US11278600B2, “Human alpha-galactosidase variants” (Codexis, Inc., priority 2014, dated 2022).

Legend:
Format in all cases: biochemical
[1] = HTP-analysis of supernatants pretreated with base (MUGal hydrolysis); conditions: challenge at pH 8.2; activity of the variant/activity of Rd3BB (SEQ ID NO: 13); yeast culture supernatant
Procedure, shortened: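 GLA variants were secreted by transformed INVSc1 yeast grown 66-84 h at 30° C. Supernatants were exposed to neutral-to-basic buffers (pH 7.0-9.7) at 37° C for 1-18 h, then assayed with MUGal in acidic citrate/McIlvaine buffer, with fluorescence read after quenching.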

[2] = HTP-analysis of yeast culture supernatants, no challenge (MUGal hydrolysis); conditions: activity of the variant/activity of Rd3BB (SEQ ID NO: 13), yeast culture supernatant
Procedure, shortened: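 GLA variants were expressed in INVSc1 yeast grown in SD-Ura broth with glucose at 30° C., and culture supernatants were collected after 66-84 h. Supernatant was mixed with McIlvaine buffer pH 4.8 and MUGal (2 mM stock) in 50 mM citrate, 200 mM KCl, pH 4.6, incubated at 37° C. for 30-180 minutes, then quenched with sodium carbonate.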

[3] = HTP-analysis of supernatants pretreated with bovine serum (MUGal hydrolysis); conditions: activity of the variant/activity of Rd3BB (SEQ ID NO: 13), yeast culture supernatant
Procedure, shortened: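 Yeast INVSc1 culture supernatants containing secreted GLA variants were mixed with bovine serum (20:80) and held 1 h at 37° C. Serum-treated samples then reacted with MUGal (4 mM stock) in citrate/McIlvaine buffer (pH 4.3/4.8) for 180 min at 37° C., were quenched with sodium carbonate, and read by fluorescence (Ex 355, Em 448 nm).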

[4] = HTP-analysis of supernatants pretreated with acid (MUGal hydrolysis); conditions: challenge at pH 4.0; activity of the variant/activity of Rd3BB (SEQ ID NO: 13); yeast culture supernatant
Procedure, shortened: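 MUGal hydrolysis was tracked by fluorescence (Ex 355 nm, Em 448 nm) after a 30-180 min reaction at 37° C. in pH 4.8 McIlvaine/citrate buffer, stopped with 1 M sodium carbonate. Beforehand, yeast (INVSc1) culture supernatants carrying GLA variants were held 1-3 h at 37° C. in acidic McIlvaine buffer, pH 3.3-4.3.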

| Molecule | Relative Activity of GLA Variants After Challenge at pH 8.2 [1] | Relative Activity of GLA Variants After No Challenge (NC) [2] | Relative Activity of GLA Variants After Challenge with Serum [3] | Relative Activity of GLA Variants After Challenge at pH 4.0 [4] |
| --- | --- | --- | --- | --- |
| 315 (protein, Synthetic Polypeptide sequence of Variant No. 315 of mature Human GLA) LDNGLARTPTMGWLHWERFMCNLDCQEEPDSCISEKLFMEMAELMVSEGWKDAGYEYLCIDDCWMAPQRDSEGRLQADPQRFPHGIRQLANYVHSKGLKFGIYADVGNKTCAGFPGSFGYYDIDAQTFADWGVDLLKFDGCYCDSLENLADGYKHMSLALNRTGRSIVYSCEWPLYMWPFQKPNYTEIRQYCNHWRNFADIDDSWASVKSILDWTSFNQERIVDVAGPGGWNDPDMLVIGNFGLSWNQQVTQMALWAIMAAPLFMSNDLRHISPQAKALLQDKDVIAINQDPLGKQGYQLRKGDNFEVWERPLSGLAWAVAVINRQEIGGPRSYTIAVASLGKGVACNPACFITQLLPVKRKLGLYNWTSRLKSHVNPTGTVLLQLENTMQMSLKDLL | + (+ = 0.5 to 1.5 relative activity over Rd3BB (SEQ ID NO: 13)) | + (+ = 0.5 to 1.5 relative activity over Rd3BB (SEQ ID NO: 13)) | + (+ = 0.5 to 1.5 relative activity over Rd3BB (SEQ ID NO: 13)) | + (+ = 0.5 to 1.5 relative activity over Rd3BB (SEQ ID NO: 13)) |
| 319 (protein, Synthetic Polypeptide sequence of Variant No. 319 of mature Human GLA) LDNGLARTPTMGWLHWERFMCNLDCQEEPDSCISEKLFMEMAELMVSEGWKDAGYEYLCIDDCWMAPQRDSEGRLQADPQRFPHGIRQLANYVHSKGLKFGIYADVGNKTCAGFPGSFGYYDIDAQTFADWGVDLLKFDGCYCDSLENLADGYKHMSLALNRTGRSIVYSCEWPLYMWPFQKPNYTEIRQYCNHWRNFADIDDSWASIKSILDWTSFNQERIVDVAGPGGWNDPDMLVIGNFGLSWNQQVTQMALWAIMAAPLFMSNDLRHISPQAKALLQDKDVIAINQDPLGKQGYQLRQGDNFEVWERPLSGLAWAVAIINRQEIGGPRSYTIAVASLGKGVACNPACFITQLLPVKRKLGFYNWTSRLKSHVNPTGTVLLQLENTMQMSLKDLL | + (+ = 0.5 to 1.5 relative activity over Rd3BB (SEQ ID NO: 13)) | + (+ = 0.5 to 1.5 relative activity over Rd3BB (SEQ ID NO: 13)) | + (+ = 0.5 to 1.5 relative activity over Rd3BB (SEQ ID NO: 13)) | + (+ = 0.5 to 1.5 relative activity over Rd3BB (SEQ ID NO: 13)) |
| 318 (protein, Synthetic Polypeptide sequence of Variant No. 318 of mature Human GLA) LDNGLARTPTMGWLHWERFMCNLDCQEEPDSCISEKLFMEMAELMVSEGWKDAGYEYLCIDDCWMAPQRDSEGRLQADPQRFPHGIRQLANYVHSKGLKFGIYADVGNKTCAGFPGSFGYYDIDAQTFADWGVDLLKFDGCYCDSLENLADGYKHMSLALNRTGRSIVYSCEWPLYMWPFQKPNYTEIRQYCNHWRNFADIDDSWASVKSILDWTSFNQETIVDVAGPGGWNDPDMLVIGNFGLSWNQQVTQMALWAIMAAPLFMSNDLRHISPQAKALLQDKDVIAINQDPLGKQGYQLRQGDNFEVWERPLSGLAWAVAVINRQEIGGPRSYTIAVASLGKGVACNPACFITQLLPVKRKLGFYNWTSRLKSHVNPTGTVLLQLENTMQMSLKDLL | ++ (++ = >1.5 to 2.5 relative activity over Rd3BB (SEQ ID NO: 13)) | + (+ = 0.5 to 1.5 relative activity over Rd3BB (SEQ ID NO: 13)) | + (+ = 0.5 to 1.5 relative activity over Rd3BB (SEQ ID NO: 13)) | + (+ = 0.5 to 1.5 relative activity over Rd3BB (SEQ ID NO: 13)) |
| 316 (protein, Synthetic Polypeptide sequence of Variant No. 316 of mature Human GLA) LDNGLARTPTMGWLHWERFMCNLDCQEEPDSCISEKLFMEMAELMVSEGWKDAGYEYLCIDDCWMAPQRDSEGRLQADPQRFPHGIRQLANYVHSKGLKFGIYADVGNKTCAGFPGSFGYYDIDAQTFADWGVDLLKFDGCYCDSLENLADGYKHMSLALNRTGRSIVYSCEWPLYMWPFQKPNYTEIRQYCNHWRNFADIDDSWASVKSILDWTSFNQEKIVDVAGPGGWNDPDMLVIGNFGLSWNQQVTQMALWAIMAAPLFMSNDLRHISPQAKALLQDKDVIAINQDPLGKQGYQLRQGDNFEVWERPLSGLAWAVAVINRQEIGGPRSYTIAVASLGDGVACNPACFITQLLPVKRKLGFYNWTSRLKSHINPTGTVLLQLENTMQMSLKDLL | + (+ = 0.5 to 1.5 relative activity over Rd3BB (SEQ ID NO: 13)) | + (+ = 0.5 to 1.5 relative activity over Rd3BB (SEQ ID NO: 13)) | + (+ = 0.5 to 1.5 relative activity over Rd3BB (SEQ ID NO: 13)) | + (+ = 0.5 to 1.5 relative activity over Rd3BB (SEQ ID NO: 13)) |
| 320 (protein, Synthetic Polypeptide sequence of Variant No. 320 of mature Human GLA) LDNGLARTPTMGWLHWERFMCNLDCQEEPDSCISEKLFMEMAELMVSEGWKDAGYEYLCIDDCWMAPQRDSEGRLQADPQRFPHGIRQLANYVHSKGLKFGIYADVGNKTCAGFPGSFGYYDIDAQTFADWGVDLLKFDGCYCDSLENLADGYKHMSLALNRTGRSIVYSCEWPLYMWPFQKPNYTEIRQYCNHWRNFADIDDSWASIKSILDWTSFNQERIVDVAGPGGWNDPDMLVIGNFGLSWDQQVTQMALWAIMAAPLFMSNDLRHISPQAKALLQDKDVIAINQDPLGKQGYQLRKGDNFEVWERPLSGLAWAVAIINRQEIGGPRSYTIAVASLGKGVACNPACFITQLLPVKRKLGFYNWTSRLKSHINPTGTVLLQLENTMQMSLKDLL | + (+ = 0.5 to 1.5 relative activity over Rd3BB (SEQ ID NO: 13)) | + (+ = 0.5 to 1.5 relative activity over Rd3BB (SEQ ID NO: 13)) | + (+ = 0.5 to 1.5 relative activity over Rd3BB (SEQ ID NO: 13)) | + (+ = 0.5 to 1.5 relative activity over Rd3BB (SEQ ID NO: 13)) |
| 317 (protein, Synthetic Polypeptide sequence of Variant No. 317 of mature Human GLA) LDNGLARTPTMGWLHWERFMCNLDCQEEPDSCISEKLFMEMAELMVSEGWKDAGYEYLCIDDCWMAPQRDSEGRLQADPQRFPHGIRQLANYVHSKGLKFGIYADVGNKTCAGFPGSFGYYDIDAQTFADWGVDLLKFDGCYCDSLENLADGYKHMSLALNRTGRSIVYSCEWPLYMWPFQKPNYTEIRQYCNHWRNFADIDDSWASVKSILDWTSFNQEKIVDVAGPGGWNDPDMLVIGNFGLSWNQQVTQMALWAIMAAPLFMSNDLRHISPQAKALLQDKDVIAINQDPLGKQGYQLRQGDNFEVWERPLSGLAWAVAVINRQEIGGPRSYTIAVASLGDGVACNPACFITQLLPVKRKLGLYNWTSRLKSHINPTGTVLLQLENTMQMSLKDLL | − (− = <0.5 relative activity to Rd3BB (SEQ ID NO: 13)) | + (+ = 0.5 to 1.5 relative activity over Rd3BB (SEQ ID NO: 13)) | − (− = <0.5 relative activity to Rd3BB (SEQ ID NO: 13)) | + (+ = 0.5 to 1.5 relative activity over Rd3BB (SEQ ID NO: 13)) |
